One substance from patent US20200164083A1 can be followed below.

The target of this assay is capture reagent (antibody) of the exenatide ELISA kit (Peninsula Laboratories Inc., # S-1311). Kind of assay: ELISA (Peninsula Lab exenatide kit). In general terms: ELISA stands for enzyme-linked immunosorbent assay.

The EC50 is the concentration at which the effect is half-maximal. Lower therefore signals higher potency in that assay. As for exenatide (peptide), the EC50 was 0.2 nM.
